{"source": "patent US20050037969A1", "about": "(ARBOR VITA, published 2005)", "note": "Ends that are not written are not given here. * marks the point of attachment. Biotin = O=C1N[C@H]2[C@H](CS[C@H]2CCCCC(=O)*)N1", "data": [{"molecular_target": "T1, TAX-IP2L PDZ-GST fusion protein (Homo sapiens (Human), UniProt Q8TF64 107-197)", "T1 construct": "Order of GST and PDZ part and limits not seen in the excerpts", "T1 sequence": "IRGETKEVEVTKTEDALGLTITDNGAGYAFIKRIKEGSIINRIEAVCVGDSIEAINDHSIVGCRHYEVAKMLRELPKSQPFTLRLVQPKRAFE", "assay": "A/G assays", "values": [{"binder": "Biotin-KDITSDSENSNFRNEIQSLV (also called CD95 (Apo-1/Fas); AAI3L)", "note": "[CD95 (Fas) C-terminal peptide AA13L, biotinylated]", "binding result": "no binding"}, {"binder": "Biotin-VTSPNKHLGLVTPHKTELV", "note": "[CD83 C-terminal peptide AA47L, biotinylated]", "binding result": "no binding"}]}, {"molecular_target": "T2, GST-TAX-IP43 PDZ domain fusion protein (human, UniProt Q13884 109-180)", "T2 construct": "also called TAX43; not shown: glutathione S-transferase encoded by vector pGEX-3X (Pharmacia)", "T2 sequence": "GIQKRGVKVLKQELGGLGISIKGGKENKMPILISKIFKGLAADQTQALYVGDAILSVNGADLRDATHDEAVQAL", "assay": "A/G assays", "values": [{"binder": "Biotin-KDITSDSENSNFRNEIQSLV (also called CD95 (Apo-1/Fas); AAI3L)", "note": "[CD95 (Fas) C-terminal peptide AA13L, biotinylated]", "binding result": "no binding"}, {"binder": "Biotin-VTSPNKHLGLVTPHKTELV", "note": "[CD83 C-terminal peptide AA47L, biotinylated]", "binding result": "no binding"}]}, {"molecular_target": "T3, GEF PDZ-GST fusion protein (Homo sapiens (Human), UniProt Q8TEU7 293-400)", "T3 construct": "The label GEF is not explained in the excerpts", "T3 sequence": "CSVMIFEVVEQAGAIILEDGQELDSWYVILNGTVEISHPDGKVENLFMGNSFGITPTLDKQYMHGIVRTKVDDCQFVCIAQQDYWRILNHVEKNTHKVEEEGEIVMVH", "assay": "A/G assays", "values": [{"binder": "Biotin-KDITSDSENSNFRNEIQSLV (also called CD95 (Apo-1/Fas); AAI3L)", "note": "[CD95 (Fas) C-terminal peptide AA13L, biotinylated]", "binding result": "no binding"}, {"binder": "Biotin-VTSPNKHLGLVTPHKTELV", "note": "[CD83 C-terminal peptide AA47L, biotinylated]", "binding result": "no binding"}]}, {"molecular_target": "T4, TAX-IP33 PDZ-GST fusion protein (Homo sapiens (Human), UniProt O14910 103-193)", "T4 construct": "Order of GST and PDZ part and limits not seen in the excerpts", "T4 sequence": "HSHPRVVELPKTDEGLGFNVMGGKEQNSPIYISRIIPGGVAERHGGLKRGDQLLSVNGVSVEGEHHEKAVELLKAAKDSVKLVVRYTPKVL", "assay": "A/G assays", "values": [{"binder": "Biotin-KDITSDSENSNFRNEIQSLV (also called CD95 (Apo-1/Fas); AAI3L)", "note": "[CD95 (Fas) C-terminal peptide AA13L, biotinylated]", "binding result": "no binding"}, {"binder": "Biotin-VTSPNKHLGLVTPHKTELV", "note": "[CD83 C-terminal peptide AA47L, biotinylated]", "binding result": "no binding"}]}, {"molecular_target": "T5, GST-DVL1 PDZ domain fusion protein (human, UniProt O14640 247-339)", "T5 construct": "also called human dishevelled segment polarity protein homolog; not shown: glutathione S-transferase encoded by vector pGEX-3X (Pharmacia)", "T5 sequence": "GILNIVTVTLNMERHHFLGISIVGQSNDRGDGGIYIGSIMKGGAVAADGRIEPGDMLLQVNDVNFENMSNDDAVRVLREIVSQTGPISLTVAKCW", "assay": "A/G assays", "values": [{"binder": "Biotin-KDITSDSENSNFRNEIQSLV (also called CD95 (Apo-1/Fas); AAI3L)", "note": "[CD95 (Fas) C-terminal peptide AA13L, biotinylated]", "binding result": "no binding"}, {"binder": "Biotin-VTSPNKHLGLVTPHKTELV", "note": "[CD83 C-terminal peptide AA47L, biotinylated]", "binding result": "no binding"}]}, {"molecular_target": "T6, PICK1 PDZ-GST fusion protein (Bos taurus (Bovine), UniProt Q2T9M1 17-105)", "T6 construct": "Order of GST and PDZ part and limits not seen in the excerpts", "T6 sequence (Q2T9M1 other isoform, or with tags, fused parts or gaps limits assumed)": "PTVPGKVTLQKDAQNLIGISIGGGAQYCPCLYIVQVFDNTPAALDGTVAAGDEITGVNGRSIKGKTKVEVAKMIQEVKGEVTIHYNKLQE", "assay": "A/G assays", "values": [{"binder": "Biotin-KDITSDSENSNFRNEIQSLV (also called CD95 (Apo-1/Fas); AAI3L)", "note": "[CD95 (Fas) C-terminal peptide AA13L, biotinylated]", "binding result": "no binding"}, {"binder": "Biotin-VTSPNKHLGLVTPHKTELV", "note": "[CD83 C-terminal peptide AA47L, biotinylated]", "binding result": "no binding"}]}, {"molecular_target": "T7, GST-PTN-4 PDZ domain fusion protein (Homo sapiens (Human), UniProt P29074 517-605)", "T7 construct": "also called protein-tyrosine phosphatase meg1; not shown: glutathione S-transferase encoded by vector pGEX-3X (Pharmacia)", "T7 sequence": "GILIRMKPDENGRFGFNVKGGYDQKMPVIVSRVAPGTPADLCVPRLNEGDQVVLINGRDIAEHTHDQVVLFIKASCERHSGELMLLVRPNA", "assay": "A/G assays", "values": [{"binder": "Biotin-KDITSDSENSNFRNEIQSLV (also called CD95 (Apo-1/Fas); AAI3L)", "note": "[CD95 (Fas) C-terminal peptide AA13L, biotinylated]", "binding result": "no binding"}, {"binder": "Biotin-VTSPNKHLGLVTPHKTELV", "note": "[CD83 C-terminal peptide AA47L, biotinylated]", "binding result": "no binding"}]}, {"molecular_target": "T8, GST-CASK PDZ domain fusion protein (Homo sapiens, UniProt O14936 486-575)", "T8 construct": "also called Homo sapiens CASK protein", "T8 sequence": "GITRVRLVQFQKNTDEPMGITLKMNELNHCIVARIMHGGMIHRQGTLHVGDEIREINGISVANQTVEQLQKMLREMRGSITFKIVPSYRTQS", "assay": "A/G assays", "values": [{"binder": "Biotin-KDITSDSENSNFRNEIQSLV (also called CD95 (Apo-1/Fas); AAI3L)", "note": "[CD95 (Fas) C-terminal peptide AA13L, biotinylated]", "binding result": "no binding"}, {"binder": "Biotin-VTSPNKHLGLVTPHKTELV", "note": "[CD83 C-terminal peptide AA47L, biotinylated]", "binding result": "no binding"}]}, {"molecular_target": "T9, KIAA0807 (PDZ domain)-GST fusion protein (human, UniProt Q6P0Q8 1104-1192)", "T9 construct": "also called K807; KIAA807; not shown: glutathione S-transferase encoded by vector pGEX-3X (Pharmacia)", "T9 sequence": "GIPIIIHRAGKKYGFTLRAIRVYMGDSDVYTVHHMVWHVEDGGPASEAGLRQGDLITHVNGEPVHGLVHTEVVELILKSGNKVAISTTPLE", "assay": "A/G assays", "values": [{"binder": "Biotin-KDITSDSENSNFRNEIQSLV (also called CD95 (Apo-1/Fas); AAI3L)", "note": "[CD95 (Fas) C-terminal peptide AA13L, biotinylated]", "binding result": "no binding"}, {"binder": "Biotin-VTSPNKHLGLVTPHKTELV", "note": "[CD83 C-terminal peptide AA47L, biotinylated]", "binding result": "no binding"}]}, {"molecular_target": "T10, K316 PDZ-GST fusion protein (Homo sapiens (Human), UniProt Q14CM0 72-159)", "T10 construct": "Order of GST and PDZ part and limits not seen in the excerpts", "T10 sequence (Q14CM0 72-159 limits assumed)": "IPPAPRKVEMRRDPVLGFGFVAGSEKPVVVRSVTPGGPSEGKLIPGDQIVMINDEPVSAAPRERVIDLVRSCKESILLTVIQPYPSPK", "assay": "A/G assays", "values": [{"binder": "Biotin-KDITSDSENSNFRNEIQSLV (also called CD95 (Apo-1/Fas); AAI3L)", "note": "[CD95 (Fas) C-terminal peptide AA13L, biotinylated]", "binding result": "no binding"}, {"binder": "Biotin-VTSPNKHLGLVTPHKTELV", "note": "[CD83 C-terminal peptide AA47L, biotinylated]", "binding result": "no binding"}]}, {"molecular_target": "T11, SP short PDZ-GST fusion protein (Homo sapiens (Human), UniProt O43464 350-435)", "T11 construct": "The label SP short is not explained in the excerpts", "T11 sequence": "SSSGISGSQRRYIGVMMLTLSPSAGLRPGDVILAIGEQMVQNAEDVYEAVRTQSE", "assay": "A/G assays", "values": [{"binder": "Biotin-KDITSDSENSNFRNEIQSLV (also called CD95 (Apo-1/Fas); AAI3L)", "note": "[CD95 (Fas) C-terminal peptide AA13L, biotinylated]", "binding result": "no binding"}, {"binder": "Biotin-VTSPNKHLGLVTPHKTELV", "note": "[CD83 C-terminal peptide AA47L, biotinylated]", "binding result": "no binding"}]}, {"molecular_target": "T12, NOS1 PDZ-GST fusion protein (Homo sapiens (Human), UniProt P29475 11-100)", "T12 construct": "Order of GST and PDZ part and limits not seen in the excerpts", "T12 sequence (P29475 11-100 limits assumed)": "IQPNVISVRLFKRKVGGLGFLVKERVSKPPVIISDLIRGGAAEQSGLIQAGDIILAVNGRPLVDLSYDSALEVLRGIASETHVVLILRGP", "assay": "A/G assays", "values": [{"binder": "Biotin-KDITSDSENSNFRNEIQSLV (also called CD95 (Apo-1/Fas); AAI3L)", "note": "[CD95 (Fas) C-terminal peptide AA13L, biotinylated]", "binding result": "no binding"}, {"binder": "Biotin-VTSPNKHLGLVTPHKTELV", "note": "[CD83 C-terminal peptide AA47L, biotinylated]", "binding result": "no binding"}]}, {"molecular_target": "T13, GST-KIAA0303 PDZ domain fusion protein (Homo sapiens (Human), UniProt O15021 1138-1228)", "T13 construct": "also called K303; not shown: glutathione S-transferase encoded by vector pGEX-3X (Pharmacia)", "T13 sequence": "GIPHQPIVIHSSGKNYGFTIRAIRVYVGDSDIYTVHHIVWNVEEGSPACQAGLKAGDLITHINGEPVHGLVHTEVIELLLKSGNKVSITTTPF", "assay": "A/G assays", "values": [{"binder": "Biotin-KDITSDSENSNFRNEIQSLV (also called CD95 (Apo-1/Fas); AAI3L)", "note": "[CD95 (Fas) C-terminal peptide AA13L, biotinylated]", "binding result": "no binding"}, {"binder": "Biotin-VTSPNKHLGLVTPHKTELV", "note": "[CD83 C-terminal peptide AA47L, biotinylated]", "binding result": "no binding"}]}, {"molecular_target": "T14, GST-DLG5 (p-dlg) PDZ domain fusion protein (Human, UniProt Q8TDM6 1343-1583)", "T14 construct": "also called Human discs large protein p-dlg; not shown: glutathione S-transferase encoded by vector pGEX-3X (Pharmacia)", "T14 sequence": "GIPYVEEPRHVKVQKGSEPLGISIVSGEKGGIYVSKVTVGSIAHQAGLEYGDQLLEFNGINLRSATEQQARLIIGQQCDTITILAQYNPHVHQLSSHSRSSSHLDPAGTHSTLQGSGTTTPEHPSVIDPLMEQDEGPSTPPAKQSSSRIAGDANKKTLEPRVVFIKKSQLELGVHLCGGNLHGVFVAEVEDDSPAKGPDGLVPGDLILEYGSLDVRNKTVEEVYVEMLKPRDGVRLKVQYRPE", "assay": "A/G assays", "values": [{"binder": "Biotin-KDITSDSENSNFRNEIQSLV (also called CD95 (Apo-1/Fas); AAI3L)", "note": "[CD95 (Fas) C-terminal peptide AA13L, biotinylated]", "binding result": "no binding"}, {"binder": "Biotin-VTSPNKHLGLVTPHKTELV", "note": "[CD83 C-terminal peptide AA47L, biotinylated]", "binding result": "no binding"}]}, {"molecular_target": "T15, GST-mouse syntenin fusion protein (Mus musculus, UniProt O08992 108-286)", "T15 construct": "also called Mus musculus Syntenin; not shown: glutathione S-transferase encoded by vector pGEX-3X (Pharmacia)", "T15 chain": "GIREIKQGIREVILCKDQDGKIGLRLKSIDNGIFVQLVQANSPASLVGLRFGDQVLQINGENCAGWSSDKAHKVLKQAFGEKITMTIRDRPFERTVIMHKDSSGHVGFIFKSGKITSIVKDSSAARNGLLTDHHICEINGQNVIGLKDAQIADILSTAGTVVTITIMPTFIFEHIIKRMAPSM", "assay": "A/G assays", "values": [{"binder": "Biotin-KDITSDSENSNFRNEIQSLV (also called CD95 (Apo-1/Fas); AAI3L)", "note": "[CD95 (Fas) C-terminal peptide AA13L, biotinylated]", "binding result": "no binding"}, {"binder": "Biotin-VTSPNKHLGLVTPHKTELV", "note": "[CD83 C-terminal peptide AA47L, biotinylated]", "binding result": "no binding"}]}, {"molecular_target": "T16, K559 PDZ-GST fusion protein (Homo sapiens (Human), UniProt Q9Y6V0 4489-4593)", "T16 construct": "Order of GST and PDZ part and limits not seen in the excerpts", "T16 sequence": "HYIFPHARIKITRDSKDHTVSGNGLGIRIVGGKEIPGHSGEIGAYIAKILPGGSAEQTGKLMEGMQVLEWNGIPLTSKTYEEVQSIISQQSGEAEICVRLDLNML", "assay": "A/G assays", "values": [{"binder": "Biotin-KDITSDSENSNFRNEIQSLV (also called CD95 (Apo-1/Fas); AAI3L)", "note": "[CD95 (Fas) C-terminal peptide AA13L, biotinylated]", "binding result": "no binding"}, {"binder": "Biotin-VTSPNKHLGLVTPHKTELV", "note": "[CD83 C-terminal peptide AA47L, biotinylated]", "binding result": "no binding"}]}, {"molecular_target": "T17, MINT3 PDZ-GST fusion protein", "T17 construct": "Order of GST and PDZ part and limits not seen in the excerpts", "T17 chain": "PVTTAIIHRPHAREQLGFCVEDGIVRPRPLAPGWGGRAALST", "assay": "A/G assays", "values": [{"binder": "Biotin-KDITSDSENSNFRNEIQSLV (also called CD95 (Apo-1/Fas); AAI3L)", "note": "[CD95 (Fas) C-terminal peptide AA13L, biotinylated]", "binding result": "no binding"}, {"binder": "Biotin-VTSPNKHLGLVTPHKTELV", "note": "[CD83 C-terminal peptide AA47L, biotinylated]", "binding result": "no binding"}]}]}
